Literature values as cited in publication PMC9221339.

Biological target: IGF-II (Homo sapiens) (UniProt P01344)
Sequence (P01344 25-91): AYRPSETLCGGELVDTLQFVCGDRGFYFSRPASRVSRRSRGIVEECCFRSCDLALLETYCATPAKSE

IGF-1R, sequence (P08069 31-736): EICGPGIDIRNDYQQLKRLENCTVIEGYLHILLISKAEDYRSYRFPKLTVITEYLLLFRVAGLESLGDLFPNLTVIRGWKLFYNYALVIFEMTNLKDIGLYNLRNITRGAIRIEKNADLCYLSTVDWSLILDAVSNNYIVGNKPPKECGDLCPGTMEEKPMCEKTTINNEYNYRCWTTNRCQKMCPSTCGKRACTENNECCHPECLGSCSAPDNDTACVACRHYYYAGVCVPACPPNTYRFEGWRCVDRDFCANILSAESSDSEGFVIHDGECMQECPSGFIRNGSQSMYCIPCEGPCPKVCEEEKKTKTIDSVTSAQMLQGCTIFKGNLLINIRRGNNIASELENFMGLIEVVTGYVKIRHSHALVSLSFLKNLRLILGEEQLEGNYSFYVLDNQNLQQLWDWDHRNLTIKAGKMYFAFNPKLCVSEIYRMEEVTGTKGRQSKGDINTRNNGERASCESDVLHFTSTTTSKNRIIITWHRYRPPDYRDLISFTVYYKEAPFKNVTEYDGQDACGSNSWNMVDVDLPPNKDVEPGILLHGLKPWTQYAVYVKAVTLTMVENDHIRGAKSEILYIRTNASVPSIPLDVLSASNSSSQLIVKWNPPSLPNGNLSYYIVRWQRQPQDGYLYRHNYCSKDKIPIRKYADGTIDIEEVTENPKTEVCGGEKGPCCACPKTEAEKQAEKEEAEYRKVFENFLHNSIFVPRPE
IGF-1R, sequence (P08069 741-935): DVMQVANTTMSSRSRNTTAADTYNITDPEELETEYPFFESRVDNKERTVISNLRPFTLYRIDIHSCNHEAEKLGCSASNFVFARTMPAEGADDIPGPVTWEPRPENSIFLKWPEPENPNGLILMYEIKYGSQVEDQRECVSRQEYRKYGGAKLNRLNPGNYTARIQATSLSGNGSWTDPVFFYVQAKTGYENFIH

## IGF-1R (from UniProt P08069)
  Kd: 3 nM
